Data on 1 molecule can be found in article PMC6639074 (eLife, 2019).

This assay has as its target T1, GFP-FLAG-STAMBPL1 (human, UniProt Q96FJ0 1-436).
T1 construct: STAMBPL1, human, amplified from FLAG-HA-STAMBPL1; GAGAGA linker between GFP and FLAG; also called GFP-STAMBPL1; recombinant STAMBPL1; source: HEK293T, transfected, purified (FLAG M2 resin, 3X FLAG peptide); MEFs, transfected (relocation imaging); not shown: GFP, N-terminal, kept; FLAG, N-terminal, kept
T1 sequence (looked up): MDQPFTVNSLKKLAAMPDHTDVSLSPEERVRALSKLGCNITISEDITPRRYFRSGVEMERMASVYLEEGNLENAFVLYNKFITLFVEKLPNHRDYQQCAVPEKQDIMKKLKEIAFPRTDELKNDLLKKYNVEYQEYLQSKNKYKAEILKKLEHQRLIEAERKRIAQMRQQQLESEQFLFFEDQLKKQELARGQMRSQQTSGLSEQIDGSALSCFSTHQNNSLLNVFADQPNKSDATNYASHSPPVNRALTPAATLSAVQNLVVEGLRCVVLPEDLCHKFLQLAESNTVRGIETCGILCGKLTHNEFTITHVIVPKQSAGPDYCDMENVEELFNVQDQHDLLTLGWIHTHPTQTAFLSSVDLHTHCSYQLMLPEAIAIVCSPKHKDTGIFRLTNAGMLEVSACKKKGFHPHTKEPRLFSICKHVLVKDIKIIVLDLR
Description: pull-down; purified GFP-FLAG-STAMBPL1 applied to GST-Rab beads with 100 uM GppNHp or GDP, 4 C, 2 hr, high salt elution, Coomassie stained gel. As to conditions: both partners purified.

B1: GST-Rab2A(Q65L) (natural protein, human, UniProt P61019 1-212, looked up)
chain: MAYAYLFKYIIIGDTGVGKSCLLLQFTDKRFQPVHDLTIGVEFGARMITIDGKQIKLQIWDTAGLESFRSITRSYYRGAAGALLVYDITRRDTFNHLTTWLEDARQHSNSNMVIMLIGNKSDLESRREVKKEEGEAFAREHGLIFMETSAKTASNVEEAFINTAKEIYEKIQEGVFDINNEANGIKIGPQHAATNATHAGNQGGQQAGGGCC
notes: with GppNHp; also called GST-Rab2A QL; recombinant Rab2A
B1: the binding result is “binds”.
